The values that follow come from PMC6232856.

The assay deals with rabbit skeletal muscle actin, polymerised (F-actin) (rabbit) (UniProt P68135). As to the kind of experiment: co-sedimentation.

Chain of human espin 3A with the USH1M variant p.790_795delRRDLLR, N-terminally 6xHis-tagged (natural protein) (B1AK53 whole entry, stated change not applied): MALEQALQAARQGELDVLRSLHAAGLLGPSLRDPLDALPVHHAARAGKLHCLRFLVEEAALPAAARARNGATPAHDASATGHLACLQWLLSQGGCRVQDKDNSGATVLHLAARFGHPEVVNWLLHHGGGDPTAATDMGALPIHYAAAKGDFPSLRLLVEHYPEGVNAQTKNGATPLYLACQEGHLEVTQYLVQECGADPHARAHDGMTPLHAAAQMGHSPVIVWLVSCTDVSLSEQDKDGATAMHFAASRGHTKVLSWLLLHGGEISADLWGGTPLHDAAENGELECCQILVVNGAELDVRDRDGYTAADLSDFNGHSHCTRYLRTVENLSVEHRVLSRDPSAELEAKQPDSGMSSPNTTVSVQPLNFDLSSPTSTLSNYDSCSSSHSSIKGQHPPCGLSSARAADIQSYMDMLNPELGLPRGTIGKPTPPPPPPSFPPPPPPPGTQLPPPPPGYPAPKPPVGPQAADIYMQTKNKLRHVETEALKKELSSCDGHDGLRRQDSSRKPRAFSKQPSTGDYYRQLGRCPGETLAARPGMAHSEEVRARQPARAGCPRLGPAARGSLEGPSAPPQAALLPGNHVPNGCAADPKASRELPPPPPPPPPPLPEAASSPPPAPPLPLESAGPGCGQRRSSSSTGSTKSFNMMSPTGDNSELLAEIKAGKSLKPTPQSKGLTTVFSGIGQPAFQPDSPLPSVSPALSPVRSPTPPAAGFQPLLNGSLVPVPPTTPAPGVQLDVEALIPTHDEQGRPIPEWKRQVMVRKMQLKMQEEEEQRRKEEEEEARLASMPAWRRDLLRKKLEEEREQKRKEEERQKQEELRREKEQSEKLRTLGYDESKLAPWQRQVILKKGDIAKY

“human espin 3A with the USH1M variant p.790_795delRRDLLR, N-terminally 6xHis-tagged (natural protein)” registered a percent of espin cosedimented with F-actin of 15%.
With “human espin 3A, wild type, N-terminally 6xHis-tagged (natural protein)”, the percent of espin cosedimented with F-actin turned out to be 45%.
